From the supplement of paper PMC12042874 come the findings set out here.

± gives the uncertainty stated by the source.

This data set in a line: amyloid nucleation score (Sup35N fusion, yeast selection) (log enrichment); library NNK2; higher = more nucleation; inactive = no reads after selection. An outline of the steps:
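The nucleation score is a DiMSum log enrichment of output over input reads, centred on the mode score of non-aggregating sequences. Sequences under 100 input reads were excluded, and reads came from Illumina sequencing of plasmid inserts. Psi-negative yeast expressing Sup35N fused to peptides of 20 random codons were induced with 100 μM copper sulfate for 24 hours and grown 7 days at 30°C on medium lacking adenine and uracil. Random libraries had three technical output replicates.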
On to GEAFRKDPLRCYMFQGIIEQ, for which the amyloid nucleation score came to 2.1 ± 0.14.

In turn, WVNSKLGLKVSLIEAGVEVS registered an amyloid nucleation score of -0.116 ± 0.43.

As for SNVWAQ, the amyloid nucleation score was determined as 0.571 ± 0.57.

PWPYIWSRCSQTDTVSCEHS registered an amyloid nucleation score of -0.212 ± 0.33.

In the case of TLTPNNSTCTGVCFCLSYNQ, the amyloid nucleation score amounted to 9.475 ± 0.059.

On to ESTLRVMGRKAISSGLMCIA, for which the amyloid nucleation score worked out at 0.269 ± 0.28.

The substance SVVLCTAFVQPC registered an amyloid nucleation score of 0.158 ± 0.45.

In the case of WRSDLAVGFYKEMHSRRING, the amyloid nucleation score was -0.992 ± 0.36.

DNCLASVFINVKEFSHLCLW came in with an amyloid nucleation score of -0.451 ± 0.79.

On to IWEVNKVIIQYFPIAFKK, for which the amyloid nucleation score came to 5.713 ± 0.05.

On to TPIRVFGNYNSFHFCTMSS, for which the amyloid nucleation score came out at 8.302 ± 0.053.

Substance TWRYHFADVGSILDLVG came in with an amyloid nucleation score of -0.277 ± 0.4.

In the case of LSFFDLIMGVRGMLQSVCGL, the amyloid nucleation score is -0.131 ± 0.56.

Consider YRKSWVWVLLESASAMLIGL, for which the amyloid nucleation score is 0.682 ± 0.22.

NSICSNLDDSCEAKRTSRFH gave an amyloid nucleation score of -0.113 ± 0.65.

Take RRGQEGYRVEWA: the amyloid nucleation score came out at 1.22 ± 0.59.

In turn, KWMLHSVR showed an amyloid nucleation score of 0.772 ± 0.22.

VNGVSMMHKIVLVNR: the amyloid nucleation score turned out to be 0.058 ± 1.

SNSLQFYDLKSCDWGVWRCE showed an amyloid nucleation score of 4.768 ± 0.038.

With MSYCNT, the amyloid nucleation score is 1.77 ± 0.11.

As to LGFLAEELCMSMMGIVDVPE, the amyloid nucleation score entry was “inactive”.

Turning to TTCDNEREGTLKYVNVCCNL, the amyloid nucleation score was found to be 5.42 ± 0.045.

GPCMMEGLIYREMSAGYTTV returned an amyloid nucleation score of 0.416 ± 0.49.

NGEASVGDFNVCLR displayed an amyloid nucleation score of -0.478 ± 0.64.

In the case of TMYLFGYEV, the amyloid nucleation score amounted to 1.31 ± 0.35.

Substance NVLWVDSSLFRNLRPTSERE gave an amyloid nucleation score of 0.276 ± 1.

In turn, KNLVDWVYYPPMH registered an amyloid nucleation score of -1.23 ± 0.62.

Turning to SMGSPETC, the amyloid nucleation score is -0.47 ± 1.1.

In turn, FEYYIDPRK gave an amyloid nucleation score of -1.27 ± 0.61.

For RSTQLNSGPTANK, the amyloid nucleation score came out at 1.21 ± 0.41.

AIWSVLYGGRYTMPHSIFGA: the amyloid nucleation score was 0.448 ± 0.38.

RFCRHRMRGILP came in with an amyloid nucleation score of 1.06 ± 0.17.

In turn, SSFFLGLPPIREIGPWTTQR returned an amyloid nucleation score of 0.168 ± 0.27.

Regarding SQSKNDQ, the amyloid nucleation score was 0.257 ± 0.34.

As for YHLGSSLLLCI, the amyloid nucleation score result was “inactive”.

SYDLPPFI came in with an amyloid nucleation score of 2.57 ± 0.11.

Substance DCYRPYWKVFIPLVIFGA displayed an amyloid nucleation score of -0.076 ± 0.55.

Turning to IESSVCPGRRPGLLPTLKAG, the amyloid nucleation score came to 0.901 ± 0.31.

In turn, WVLPSLKGCTAVSYIFVFLY displayed an amyloid nucleation score of 0.398 ± 0.27.

For LSHLISFRLTTTSNFRFWDH, the amyloid nucleation score turned out to be 3.15 ± 0.093.

In turn, DRHYCQKGEWRKDEDVFPVE had an amyloid nucleation score of 0.13 ± 1.1.

The substance SFFFMKSWSGRPPIQLGV yielded an amyloid nucleation score of -0.113 ± 0.65.

NRKYTILVLDLLEGSLCARE showed an amyloid nucleation score of 0.599 ± 0.42.

For AASNQMSQ, the amyloid nucleation score entry is “inactive”.

CSVYVCQLSLCCSVY yielded an amyloid nucleation score of 6.426 ± 0.06.

Take ICMAGEVGKQRGYLDGGMP: the amyloid nucleation score amounted to 0.505 ± 0.54.

Take NYSVWVIPVFMDEHIVLFMY: the amyloid nucleation score was 5.8 ± 0.071.

Consider TLMWESYMWS, for which the amyloid nucleation score is -0.897 ± 0.63.

As for SINWAFDYVSVLVGFD, the amyloid nucleation score result is “inactive”.

For FTNCEYNVDISCVSGLSYSI, the amyloid nucleation score result was “inactive”.

The substance REFLCCGN returned an amyloid nucleation score of 3.36 ± 0.075.

Consider RGIFSSVWLLRSIMFGVGSP, for which the amyloid nucleation score is -0.016 ± 0.23.

Take CSRLG: the amyloid nucleation score is -1.39 ± 1.1.

FFFVWESNPSIWDGTFTVEV returned an amyloid nucleation score of 0.21 ± 0.46.

The substance KRIIFALL gave an amyloid nucleation score of -0.337 ± 0.48.

As for MFWKTWGVNCQATNRMEIRL, the amyloid nucleation score stood at 2.99 ± 0.055.

For the substance MFCRTRALSRTGPTGQLLRV, the amyloid nucleation score amounted to 3.56 ± 0.13.

The substance WLIKKASRYSN yielded an amyloid nucleation score of -0.608 ± 1.1.

In turn, YICVTMPVWIH displayed an amyloid nucleation score of 7.536 ± 0.042.

Substance GLGYLMINYMRISWWAMYCA yielded an amyloid nucleation score of 0.235 ± 0.61.

For DLVSLLSGVFVMFVGLCFEV, the amyloid nucleation score is -0.733 ± 1.1.

In the case of ICKFFSIGVH, the amyloid nucleation score was 1.14 ± 0.68.

Take SFMGEK: the amyloid nucleation score is -0.453 ± 0.74.

Regarding MLSRNNCNALWYSIFS, the amyloid nucleation score is -1.5 ± 1.

With VVLRHHLFSSALYICMRGIQ, the amyloid nucleation score result is “inactive”.

With KDHRSLSGRDMFRGTLVVVM, the amyloid nucleation score was 0.328 ± 0.19.

As to IKLDIYNWAFSFNWFDK, the amyloid nucleation score was determined as 6.05 ± 0.075.

As for NTVRRVCFAVVEMSASIMDG, the amyloid nucleation score stood at 0.738 ± 0.42.

On to NIIACMYKLEDSGRQFSMLE, for which the amyloid nucleation score stood at 5.214 ± 0.046.

In the case of TSSCFDCSFNMEFLMVLVSF, the amyloid nucleation score amounted to 1.52 ± 0.2.

For DHIVYTLGCWGLRSPFKPLL, the amyloid nucleation score was determined as 0.026 ± 1.1.

For ILSLEDLSLVRYGAIDS, the amyloid nucleation score was -0.483 ± 1.1.

For FDSEQLIRYD, the amyloid nucleation score was -0.909 ± 1.1.

WFSRFSFCRKHYLTVNNWGL: the amyloid nucleation score was -0.566 ± 0.49.

On to RFSCAEYVPVMT, for which the amyloid nucleation score is 0.298 ± 0.56.

Regarding MQKRRDSKYEYLVFGCDVCM, the amyloid nucleation score is -1.13 ± 1.1.

Substance EPLVKYPEYSFPSMVCMPSI had an amyloid nucleation score of -0.478 ± 0.64.

DLRRGSRRWRKYGTGECGLL gave an amyloid nucleation score of 0.43 ± 0.32.

AHLRITFSMSMNMQLFMVLR showed an amyloid nucleation score of 0.587 ± 0.48.

CLKAFIWLRRLEGQI had an amyloid nucleation score of 0.082 ± 1.1.

On to FLRILFFGLGVMLQIRFFVH, for which the amyloid nucleation score was -0.569 ± 0.37.

AASWTPSCNCPPWVFHGWLL yielded an amyloid nucleation score of 0.16 ± 0.8.

Take RTALLP: the amyloid nucleation score came to 1.58 ± 0.52.

WPGLCYCGMPVRMNWLLVTP yielded an amyloid nucleation score of -0.661 ± 1.1.

In turn, YVVEHQLMYAVWLFALGGSN returned an amyloid nucleation score of 0.655 ± 0.24.

SGVLHRCEIPVLRACRLLL had an amyloid nucleation score of 0.425 ± 0.37.

Consider YDERTWGTECMCTSCSCADK, for which the amyloid nucleation score is 1.24 ± 0.28.

The substance GPTNVIRTISRDTTIV had an amyloid nucleation score of -0.646 ± 0.39.

As for MYKVPTCPMFMVDNYYKLLN, the amyloid nucleation score entry is “inactive”.

Turning to FWYFPDIIWG, the amyloid nucleation score result was “inactive”.

In turn, SGSKGRASVNIIDR returned an amyloid nucleation score of 0.131 ± 1.

On to DSILLSLCPTNCFKN, for which the amyloid nucleation score is -0.148 ± 0.63.

The substance HGDNFSEVATTFNCMMLLNV came in with an amyloid nucleation score of -0.243 ± 1.1.

Take MSYAYKVRSCCVMFMMFRSW: the amyloid nucleation score was -0.336 ± 0.54.

The substance TTFMRVVLFAPVLYMYGKNR returned an amyloid nucleation score of 5.492 ± 0.043.

The substance WQNETRMACRWFRRMLSFCI showed an amyloid nucleation score of 1.42 ± 0.4.

Substance SCSSCLL returned an amyloid nucleation score of -0.183 ± 1.

Consider VGSFSTVGCR, for which the amyloid nucleation score was determined as 0.003 ± 0.36.

The substance TVGIAKKNMVR yielded an amyloid nucleation score of 0.503 ± 0.43.

For MLSTTEVCVGPDRD, the amyloid nucleation score was 3.89 ± 0.088.

As for SCSIKSSTVVEDPF, the amyloid nucleation score was 0.049 ± 0.76.

QLLRCNRRSKMLDR displayed an amyloid nucleation score of -0.156 ± 0.76.

LSWWIHVTVWFPFQVKTGYL returned an amyloid nucleation score of -0.904 ± 0.78.

Take LRKVLW: the amyloid nucleation score is -0.657 ± 0.79.

As for GIPCGGMFCRIGS, the amyloid nucleation score was determined as 0.524 ± 0.81.

Take GFYGLTVSSTEYKWSMIQIR: the amyloid nucleation score was found to be 1.88 ± 0.077.

For the substance YLASFVFGIVNTYSAVALS, the amyloid nucleation score came out at 0.552 ± 0.66.

In turn, VAQVWLSNVVMYLRRAENLT had an amyloid nucleation score of 0.214 ± 0.26.

MRGGLGV had an amyloid nucleation score of 0.492 ± 0.49.

As for GSRYLIGVEYE, the amyloid nucleation score was 0.319 ± 0.56.

In the case of VSAEWLYTGVWPMRLRSSGV, the amyloid nucleation score was found to be 3.95 ± 0.055.

For the substance ETVLFYSV, the amyloid nucleation score result is “inactive”.

For the substance SFVNFCRLRASLCAVAISTT, the amyloid nucleation score entry is “inactive”.

As to GYVRRSIGYSLLSVVS, the amyloid nucleation score is -0.121 ± 0.46.

IFISRVNDFTVMGGDWSFRG came in with an amyloid nucleation score of 3.64 ± 0.083.

As for YYTQRAAFIWKVICKVDVYV, the amyloid nucleation score turned out to be 2.46 ± 0.18.

With FGMRTGWREGGESCSTHERG, the amyloid nucleation score was 1.14 ± 0.38.

With PRFIQGYILRNLCARMLKYS, the amyloid nucleation score was -0.368 ± 0.39.

As to TPSDGCQHMASVVISI, the amyloid nucleation score worked out at 0.683 ± 0.8.

In turn, LNKNYWGL displayed an amyloid nucleation score of -0.921 ± 0.39.

FCYCLIKGCMLEGLSNYSCD displayed an amyloid nucleation score of -0.613 ± 1.1.

The substance SLSVAWKWGGRSDN registered an amyloid nucleation score of 6.213 ± 0.06.

WEASCVNPH: the amyloid nucleation score is -0.191 ± 0.65.

For QDMQLVIYWSYKLYQVFLRA, the amyloid nucleation score was -0.357 ± 1.1.

Regarding SSVAKVRGSVLYMGRSGWVG, the amyloid nucleation score was 0.138 ± 0.8.

With AHHLSFGVNDCSTCERSVQ, the amyloid nucleation score was 0.77 ± 0.28.

In turn, DLSQYDCVNVFALPGWCNNT returned an amyloid nucleation score of 4.35 ± 0.048.

As to KSEAGYA, the amyloid nucleation score is 0.658 ± 0.51.

Regarding ENYFCSYWFCFSWALG, the amyloid nucleation score turned out to be 6.362 ± 0.062.

For the substance DSFIVYVR, the amyloid nucleation score was -0.072 ± 0.63.

YRYLLVLSWRSMFAHRLLPS gave an amyloid nucleation score of 1.5 ± 0.5.

For the substance LCGNRGFYDH, the amyloid nucleation score was -0.177 ± 0.54.

Regarding YNCLACARVKWKSVCGRMSC, the amyloid nucleation score came out at 0.388 ± 0.32.

VYKFEKESLLTLSHIHKVAS came in with an amyloid nucleation score of -0.012 ± 1.1.

Regarding MFHCSSKACLPVVDVGVVVC, the amyloid nucleation score was 0.96 ± 0.29.

In turn, HCKSDPWLEPTSVWVFIRLV registered an amyloid nucleation score of 0.818 ± 0.23.

Consider APSLIYFNVST, for which the amyloid nucleation score stood at 3.75 ± 0.13.

For the substance KLDVAAFVKVAE, the amyloid nucleation score worked out at 6.142 ± 0.039.

Substance HTQSLVRVCWIYIRLPRSTP registered an amyloid nucleation score of 0.393 ± 0.2.

Take QLNAVDMAKPVVGLFREQSY: the amyloid nucleation score is -0.15 ± 0.39.

NFVSISMGNIYMSQLGRWTA registered an amyloid nucleation score of 8.33 ± 0.051.
